Reference: paper doi:10.1101/2020.02.07.938530
Like-named read-outs stand apart in the source and are kept apart here.

Legend:
[1] = molecular target: 5FLAG-Scc1 (yeast (budding yeast, Saccharomyces cerevisiae)) (UniProt Q12158); assay: co-IP
[2] = molecular target: 5FLAG-Scc1 (yeast (budding yeast, Saccharomyces cerevisiae)) (UniProt Q12158); assay: co-IP; remark: listed apart in the source

UniProt Q12158, sequence (Q12158 whole entry): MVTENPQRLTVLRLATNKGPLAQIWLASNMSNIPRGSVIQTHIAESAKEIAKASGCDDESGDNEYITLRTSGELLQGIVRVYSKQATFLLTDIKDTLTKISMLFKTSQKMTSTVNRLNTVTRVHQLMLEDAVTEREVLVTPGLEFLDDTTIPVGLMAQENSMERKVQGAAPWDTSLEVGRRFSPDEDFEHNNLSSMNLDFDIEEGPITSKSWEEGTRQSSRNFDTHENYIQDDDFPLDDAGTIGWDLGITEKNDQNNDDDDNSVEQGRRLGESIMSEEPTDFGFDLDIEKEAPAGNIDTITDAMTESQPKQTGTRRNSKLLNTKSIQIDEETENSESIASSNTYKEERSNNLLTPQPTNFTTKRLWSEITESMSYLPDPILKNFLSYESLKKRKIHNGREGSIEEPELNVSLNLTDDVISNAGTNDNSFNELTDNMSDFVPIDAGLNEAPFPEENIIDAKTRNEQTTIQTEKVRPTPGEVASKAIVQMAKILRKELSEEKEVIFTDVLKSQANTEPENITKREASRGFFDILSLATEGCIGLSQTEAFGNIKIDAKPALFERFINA

GFP-Scc1 (from UniProt Q12158 1-566) (natural protein)
percentage of cohesin dimers [1]: 40%
percentage of cohesin dimers [2]: 20%
